The values below come from PMC3413365 (The Journal of Cell Biology, 2012).

B3: Lucifer yellow–labeled BiP substrate peptide (NH2-HTFPAVLGSC-COOH) (peptide)
peptide: H-HTFPAVLGSC-OH
modifications: also: Lucifer yellow iodoacetamide label, residue not given here

Test in all cases: fluorescence polarisation
A general note: Fluorescence polarisation rises when a labelled molecule tumbles more slowly, as on binding a larger partner.

Test [1] concerns the target B3.
Test [2] concerns the target T1, H6-tagged hamster BiP, wild type (hamster, UniProt G3I8R9 19-654).
In test [3] the target is T2, BiP^R470E (hamster, UniProt G3I8R9 19-654, R470E).
The next test deals with Lidless BiP (Δ554-654) (hamster, UniProt G3I8R9 19-553).
The next test addresses BiP^Δ(554–654);R470E (hamster, UniProt G3I8R9 19-553, R470E).
Test [4] deals with T1, H6-tagged hamster BiP, wild type. This is another data set of the same source.
In test [5] the target is T2, BiP^R470E. This is another data set of the same source.

T2 sequence (G3I8R9 19-654 R470E): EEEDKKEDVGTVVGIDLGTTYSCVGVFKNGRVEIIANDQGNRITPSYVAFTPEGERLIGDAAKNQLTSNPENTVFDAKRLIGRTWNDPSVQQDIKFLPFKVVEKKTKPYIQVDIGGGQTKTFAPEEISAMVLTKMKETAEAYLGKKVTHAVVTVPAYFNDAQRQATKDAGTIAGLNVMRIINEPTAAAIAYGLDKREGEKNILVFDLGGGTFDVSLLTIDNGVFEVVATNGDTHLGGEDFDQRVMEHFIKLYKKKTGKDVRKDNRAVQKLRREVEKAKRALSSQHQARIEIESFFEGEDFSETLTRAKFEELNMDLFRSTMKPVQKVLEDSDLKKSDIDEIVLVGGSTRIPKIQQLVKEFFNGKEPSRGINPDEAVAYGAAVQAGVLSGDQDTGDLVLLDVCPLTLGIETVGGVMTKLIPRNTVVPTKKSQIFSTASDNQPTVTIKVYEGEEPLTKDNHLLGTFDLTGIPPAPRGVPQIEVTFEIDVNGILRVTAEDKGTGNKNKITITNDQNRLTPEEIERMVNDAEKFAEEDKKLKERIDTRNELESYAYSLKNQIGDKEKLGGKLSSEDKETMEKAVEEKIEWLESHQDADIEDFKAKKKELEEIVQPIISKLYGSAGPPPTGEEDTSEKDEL
T1 sequence (G3I8R9 19-654): as the sequence (G3I8R9 19-654 R470E) above, with E452R counted along it
Sequence of Lidless BiP (Δ554-654) (G3I8R9 19-553, stated change not applied): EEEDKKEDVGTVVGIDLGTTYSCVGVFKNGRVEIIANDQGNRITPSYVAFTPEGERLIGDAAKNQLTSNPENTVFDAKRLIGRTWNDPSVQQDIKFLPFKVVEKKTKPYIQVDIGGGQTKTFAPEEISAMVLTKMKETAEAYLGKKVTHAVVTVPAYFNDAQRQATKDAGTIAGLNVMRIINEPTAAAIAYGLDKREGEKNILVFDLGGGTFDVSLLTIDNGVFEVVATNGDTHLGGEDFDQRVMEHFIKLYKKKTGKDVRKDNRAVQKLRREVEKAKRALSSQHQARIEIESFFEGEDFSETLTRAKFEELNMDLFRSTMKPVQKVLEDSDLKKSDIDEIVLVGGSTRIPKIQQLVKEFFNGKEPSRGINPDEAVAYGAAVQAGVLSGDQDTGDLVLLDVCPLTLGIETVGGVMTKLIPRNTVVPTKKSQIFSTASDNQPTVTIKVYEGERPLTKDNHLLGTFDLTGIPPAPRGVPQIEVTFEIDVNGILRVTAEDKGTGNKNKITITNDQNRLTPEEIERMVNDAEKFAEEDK
Sequence of BiP^Δ(554–654);R470E (G3I8R9 19-553 R470E): as the sequence (G3I8R9 19-553, stated change not applied) above, with R452E counted along it

B1: BiP^R470K (natural protein)
chain: not shown
Turning to B1, the “fold change of the peptide off-rate against wild type” value in test [1] is 3 fold.

B2: BiP^R492K (natural protein)
chain: not shown
Take B2: the “fold change of the peptide off-rate against wild type” value in test [1] came to 3 fold.
What is called koff is a measure of how fast the partners let go of each other. Low values mean a long-lived complex, high ones a short-lived complex. What is called Kd is the concentration at which binding is half-saturated. As to B3, the koff in test [2] is 0.0002 s⁻¹; with BiP^R470E [3], 0.0074 s⁻¹; in the test with Lidless BiP (Δ554-654), 0.0017 s⁻¹; with BiP^Δ(554–654);R470E, 0.00328 s⁻¹. The Kd turned out to be 13 µM in test [4] and 9 µM with BiP^R470E [5].
